The text below walks through data of paper PMC4090420 (Biochemistry, 2013).

This experiment concerns the target 2F5 MAb (human). The experiment can be described thus: ELISA. For orientation: In an ELISA, binding on a coated surface is turned into a signal by an enzyme label.

B1: 2F5–17 αIM (designed binder)
chain: VSDVPRDLEVVAATPTSLLISWPYDKWAYRYYRITYGETGGNSPVQEFTVPGSKSTATISGLKPGVDYTITVYAVTRWYWVPHYSKPISINYRT
modifications: biotin on the birA site
As for B1, the “fold lower affinity than the MPER peptide” value is roughly 10 fold.
